test: soluble fraction after stress (log2 fold change); higher = more stays soluble; pooled small domains, quantitative proteomics; conditions: stress: pH 4
Summary of the method: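 Custom libraries of small protein domains were pooled and exposed to pH 4. High-throughput quantitative proteomics then measured the log2 fold change in the amount of each domain still soluble, with higher values meaning more stayed soluble. This soluble-fraction fold change stands for aggregation propensity.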

| Sequence | soluble fraction (log2) |
| --- | --- |
| HMALTLDEARTQGRVGETFYGYLVALKTDAETEKLVNDINAERKASYQQLAKQNNVSVDDIAKLAGQKLV | -0.113 |
| HMALWFDEWKKYQDTIASADLLPDKAERDALIAQAEDRFNYWMDIYPRSASLNHSFDDLYEEHRRKIE | -1.33 |
| HMAMDYEGFKKSVYALTSIDLNAYKERQMKRRIDTLIAKNKYNGYEDYTAAIKKDKALFEEFVNYLTIN | -0.521 |
| HMAMMTKQRLIQLIHIARNDLQMDEDTYRQMLQGLTGKASTKGMDTPQLNRVLESMKKKGFRIK | ≥ 0.43 |
| HMAMNLQETVLMQLRDLILRGTFEPGQRLSEQPLAERLKASRTPVRSALVTLEQEGLIEASETGKYLVRQ | -0.845 |
| HMAMTNEEREALISEIKQTVNNSIDLKKDISDTEIKEAITQAVFERSEKSYLSIAEKQDIITAVFNSMR | -0.159 |
| HMANADVVLVDLDKEYTVDAAKFHSVVKHSPFNGFAVKGAPVLTIVRGTVVAENGEVVGQPGHSKMVRP | -0.0368 |
| HMANEGWDIYKLDIRNHKQPNGEYYSEKEIQSTINNTFGKGSFNVDWKKYEKDKEYREKTNYYYFQAKYFV | -0.24 |
| HMANHIAAIHVLKSKLQMSDSDYRVLITGLTQKASTKDMSDIERQRVRDHMQGLAERMGVVK | 0.0887 |
| HMANIAVTIPTGSSGDRIADILLQAGLIKDKQDFNQAVIAAGAEGKLRAGYFVIPSNATPAEIISILT | -0.253 |
| HMANILKHKNKDGVITSYTIRVYHGYDEAGKRLRPYTMNYKPAPNMTARQIEKELNRQAVQFEEQIKNGYA | -0.182 |
| HMANKLTSTNLAKQHKMGLSEMYAELMNSGYLIEKDGKYELTPLGISIGGESKPNRYKKGEFYFLWPSDIS | 0.22 |
| HMANLLNLREIPVANIRPELTMFLIPGENITQAFQTIRDQVVFTNKRLIVANVQGLTGKKVSYTSYPY | -0.251 |
| HMANPFQELTERELDVLRQVAAGKNNREIAEALFIGEKTVKTHISNILSKLHLADRTQAAVYAWQQGMM | -1.14 |
| HMANTVVMPNLLGKTMTEAKIELKELGIDITLKGSESSSKYSAGQIMEQNIAEGTKVEVGSSVEVTIAGS | 0.334 |
| HMAPAPDEAFAEFVRSSAPSLTRTAWLLTGDRGHAQDLVQNAYAKTLQAWGRLDAEGALAYTRRAVIT | -0.0327 |
| HMAPDGIEDKEGWLKVLPMITNLSIQMQNLQARGMDYEHIRNLLHETLLRYDDRIDSNLFIPNV | -0.198 |
| HMAPDNDELEKAKKIVNAFIEAKAKGLGVVSLGTKMIDAPVVKRAQKIIDQTIVMGKLSLNWQDEFFN | -0.32 |
| HMAPEVTVHDGSIVVRGHVGGVTVYDESGRQIASVQSRGAVAIPVPAGHTYLYIVKPEGKPAIKVRAAH | -0.0212 |
| HMAPKSALKIIEQISNNPRATMTDLANLTGYSRRWVAQTIKRLQEENIIKRIGSDKSGYWEIIG | 0.417 |
| HMAPLATLEADGNGAVKLPNLAGHAIREVAAALGGANLALIPIGSGTSWKQNPAPGTILHKGDTVTVYF | -0.353 |
| HMAPLEPLTDRETEMLVRLANGASNKVMARESFVSENTIKFHLKNIYAKLGVTSRLQAIAAARNQGLI | -0.0342 |
| HMAPLRTQYVNVNYANAAEIKTLISGADKEVGSLLSERGSVVVDKRTNTLIIQDTQARLNDIGDLIEQLD | -0.52 |

| Sequence | soluble fraction (log2) |
| --- | --- |
| HMAPMYGEFENVRLTDAQLDKLNARFPPEQVQREIEALSGYMRSKGKRYADHYATLLNWLRRDFPP | -0.112 |
| HMAPNVEENSKLIGEIGMTLTPLRPSGIATINNRRVDVVSNGDFIDQDERVMVKRVQGARVVVIPV | 0.1 |
| HMAPPDFTTFMRNYQDMVYSTAVRLIGNETQAEDIAQEVFIKAHAHFENLRTSPSAGGWLKTVATNLSIN | -0.949 |
| HMAPQAETLLRQVMALPSKDRAVLYLHYYEGFSTREVGDMLHISQSAVTTRLLRARKKLKEIL | -0.754 |
| HMAPRLTERERQVLQLIAEGLTSMQIGDRLHIAASTVDVHRRNLMRKLDLHNVADLTRYAITQGISP | 0.00348 |
| HMAPRQDIAYYTVKPGDTVLAIAEKFGLQPETLMWSNSIIEQNPDRLSIGDELRILPVDGVLHVVK | -0.666 |
| HMAPRSSAVYFYLSQVALKKNQPRKAEAMARRGLTVSQDANRRRALWQLILRSGQAQNNTRVIREAQQAL | -0.0754 |
| HMAPSLSEYAYEEIKHAIERGVYPPGAKLITQEIADRLGISRTPVVAAVNRLTAEGYADAVPQHGIFVK | 0.0288 |
| HMAPVLTRREHEVLHLLTDGLDNRTIARNLFISEATVKFHLHNIMGKFGVHRRAALVSTALRG | -0.182 |
| HMAPVTPEERAQAMEEYKAMVTIEGYTPPKNIIEQNYKRGLWSETMLNMAVTKGAITEAEKLEIMN | 0.0947 |
| HMAQIVNLPRKNVNGASYYYYEVQPKETIYSISRKLGVSGAEIQRHNPSVADGLKIGQVLYFPAEG | -0.0603 |
| HMAQLPADMSKVKSADISEAQLQEFIQKATSSGYNMNQIEMEFAKRGMSENEVSLLRPRLRRLMAS | 0.212 |
| HMAQLSDDEQAIIDTITRRGDATMSELIASVNVSTPRLMSMLIDMEFRSLITALPGGRYQIRLIN | -0.464 |
| HMAQLTPREREVLVLIAEGKSNKEIADQLNIGVRTIETHRERIMRRLNIHSVAGLTKYAIANGLVTL | 0.0239 |
| HMAQPIPSGADIRAAREAAGMTLRRFAEYIAGPDFSTWSRYETGKPIRVKNISPEVWQRVRKFIAQNKG | 0.129 |
| HMAQQEMEIIPLRHRQVEQVMPTLRPLLEPGAALSGMNNQLILRASRKNREEIKQALAVIDT | 0.121 |
| HMAQSEDLMVMAQRILGGPEAQSFFQAEATRQGLAGFLPEPIPDFLQRLERKLSGSVGSATAHAMVAQTMG | -0.279 |
| HMAQSLAQKINNYILTNRSSIANVAKSIGYSRTTVSRYLAGKYDSDPTDLENKLAEFLAHETGE | 0.017 |
| HMAQTEIIRVTKDIKKGDAITADKFEKVKVGAYNLPGNVVKNADELKGKFAAADLVRGDYILTSKLTDNP | 0.0605 |
| HMAQVRSTVERRENGTYTVELNLNDDVDNVMRLQLMVATKEMAEDLAQRFQKNPEQVYSQLVTALYG | -0.719 |
| HMAQVSDDAELEKWADTAIDEHPKPVEEYRAGNAASINFLMGQVMKMSRGKANPGAVMQILKQKLD | 0.22 |
| HMAQVSDTGAIAKIVADAIAANPKQVQQYLDGNEKVLMYLVGQVMKLSKGKANPPMVIQLLKEQLG | -0.0882 |
| HMAQVSDTGELEGVVDGVLAANAKSVADFQAGKENAFQYLIGQVMKETKGKANPEVVATLLRTKLS | 0.121 |

| Sequence | soluble fraction (log2) |
| --- | --- |
| HMARAGKLAQDMAVWTKETMLNTERNFISLRHFKRELLRRTLAPGESEQTVRAMEEAGYIQVKDGLVFPIK | -0.511 |
| HMAREQISVSQMVRDVRDGQVKNIEVLGQELRLSYADGSQKVTRKEEGQQALEILFASDIDLAALDLEVQ | -1.16 |
| HMARIDYHAMDSDDLSFSEGELLEIYDKPGSFWWKGRSLVSGDEGDIPS | -1.15 |
| HMARKFQKDTGYLNKKERTWLLDFFPSLKKYLYTGAYIRSIIVVESNVTYTDKELPSNYTFTYKFA | 0.176 |
| HMARKISVEALGKYFPNSPMLAAAVAVTGVMKKDEFIHEMRASYKHKFAKKPEVIDGNMKALTMTFEA | -0.122 |
| HMARNHYETLGVGRTATGDEIRKAYRSEAQKHHPDRGGDAERMQSLNEARDTLLDDQARAAYDQELDL | -0.0435 |
| HMARPLLSPREQDVLALIARGFSYSEVARLQAVTVHTIRTHIRNLYAKLSVHSKTEAVFEATRMGLLP | -0.569 |
| HMARRKRDIDSDINVKVFEHWLDNLDSASRESFSAFAEETFSPIQVYLYAKFLGYESSIIAVDHWVAVAYP | -0.574 |
| HMARSVAEFVERGRSGGSLERPKLQRMLEYIQDRPVDFVIVHKIDRLARNRADDAAITKTIRGAGAYLVST | -0.103 |
| HMARTGSEELVGALATVREPLAPWGQVFVQGALWRARSADGGPVDAGQQVVVRAVEGLTLVVEPRD | -0.166 |
| HMARYSMLEEQLLQLINKHGTMSTPKLVEATGAPRSTVTYQLRKLLESGTIERTQPARSPKQSYRIKS | 0.0957 |
| HMASATGVVTAASLNVRSGAGTNYSVVNTLAKGTKVTVLNTADGWYEIEATVNNEKITGYVSATYIAMD | -0.0486 |
| HMASLSRRELEVLELLALRLTVKEVAERLVISELTAKRHTSNIYQKLGVNRRRDALAAAQARGLLGAR | -1.09 |
| HMASRSQTEIMHLLSSGLPKHELVTALQSLLGISKPTAYKYLSQDVSIAYDHMVKILEYPPFQRVLYQ | -0.799 |
| HMASSVKAPLPGVILDIKVKVGDTIKNGDTVVILEAMKMENNIHSDKDGVVKSIEVNKGDSVLEGATLLTI | -0.822 |
| HMASVDDILDRFKQAAKVTTDADLAKVLGLSRQSIAAARLRAKIPASWFPKMSSLFNISTEWLYRG | 0.011 |
| HMASVRPVAPPDPKTHTRLTYRIRRGDTLERIGRRYRVSIAEIQAWNTLRDPGDILAGQRLVIWIPTS | 0.117 |
| HMATAPQIRAIYALGSKLGINQNSREDNLHQLVYSITGKESIKGLTNYEAARVQSELANMERK | 0.396 |
| HMATEPLQPRVEVLGSTLATTNGARIVGVYDMSGREVSATQLSKGVYIVKVTNGSVTATQKVFI | 0.254 |
| HMATETMGMIIRRLRREHGLTQEELAASIGVTAQAVSKWEKDLGMPDISQIVPLAGAFNVRTDVLFGLE | -0.672 |
| HMATEWLSSKEAAQRLGVSAATLYAYVSRGLLRSEGSSGQRERRYRADDVAQLRRRREVGRKAESIAASTL | 0.142 |
| HMATHWHITPNPNNGKFLISGLMQDDSFHLMDASGQWLRQLRTVNQELDLDLQPGVYFLKDNSGSVMKFVV | -1.15 |
| HMATIADILAEHKDKEGPLLPVLHDVQKMFGHVSEEAMREIAQALNLTRAEVYGVVSFYHDFRKEVE | -1.19 |

— the domain aggregation screens of Martell et al. (2025)
